Test results reported in the supplement of paper PMC10567573.
± gives the standard deviation.

Experiment: protein stability index of a GFP-peptide fusion (GPS, HEK-293T) (PSI 1-6); higher = more stable
[1] = treatment: DMSO, c terminus: a fixed tail appended
[2] = treatment: MLN4924 1 uM, 8 h, c terminus: a fixed tail appended
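Further: 24-mer peptide tiles fused after GFP, lentivirally expressed, FACS-sorted into six equal bins by GFP/DsRed ratio, decoded by Illumina sequencing, PSI is the read-weighted mean bin number.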

Row | Sequence | protein stability index [1] | protein stability index [2] | protein stability index (treatment: DMSO, c terminus: native) | protein stability index (treatment: MLN4924 1 uM, 8 h, c terminus: native)
1 | AAAGLHASPMSADRVVAFMDHIRI [NR2F2] | 2.25 ± 0.4 | 2.26 ± 0.34 | – | –
2 | AAARPSSCRRKQEDDRDGLLAERE [TMEM106C] | 5.18 ± 0.25 | 5.3 ± 0.34 | – | –
3 | AASEAGRAMHLMKKREKQREQMEQ [FAM50A] | 5.05 ± 0.25 | 4.87 ± 0.17 | – | –
4 | AAVPGTQLSPSPTPASQSPKKPPA [SNAP91] | 5.44 ± 0.25 | 5.37 ± 0.33 | – | –
5 | ACKSLQTRQNGIQTNKPALRAVRQ [STX5] | 4.07 ± 0.17 | 3.95 ± 0.2 | – | –
6 | ACLIVMFLPEKKDTGVFAVVNSHS [SLC22A15] | 3.22 ± 0.56 | 2.12 ± 0.19 | – | –
7 | ACSEGDVNAVRKLLIEGRSVNEHT [ANKRD17] | 4.22 ± 0.45 | 4.64 ± 0.11 | – | –
8 | AEEAESHFSSIPDAFWWAVVSMTT [KCNA1] | 2.11 ± 0.31 | 2.1 ± 0.24 | – | –
9 | AEFMRNFQKGQVTRDGFKLVMASL [HMOX1] | 2.33 ± 0.75 | 2.26 ± 0.16 | – | –
10 | AEHNLVLFRKDVDDATLSRLELER [PRPH] | 4.45 ± 0.19 | 4.51 ± 0.16 | – | –
11 | AEHWKHKKEESGRERKKNWGGQED [PBXIP1] | 5.24 ± 0.37 | 4.96 ± 0.4 | – | –
12 | AEPAMPGRLYVHPDSPATGAHWMR [TBX5] | 3.5 ± 0.36 | 3.44 ± 0.21 | – | –
13 | AFADRDQSERQRHESQQLATETQA [TEKT4] | 5.11 ± 0.16 | 5.36 ± 0.31 | – | –
14 | AFDYIKQRRSMVSPNFGFMGQLLQ [DUSP5] | 2.14 ± 0.25 | 2.27 ± 0.39 | – | –
15 | AFGAPIGGTLFSLEEGSSFWNQGL [CLCN6] | 2.47 ± 0.27 | 2.47 ± 0.35 | – | –
16 | AGAGWWVGAAYASLRRRGASAAAR [TRIM14] | 2.88 ± 0.22 | – | – | –
17 | AGGQTRLQASDRYRDLAGGTGRSA [FCHSD1] | 4.25 ± 0.41 | 4.35 ± 0.28 | – | –
18 | AGLGPGSRRPLDEAVAGAEGREAP [DENND6A] | 5.39 ± 0.23 | 5.04 ± 0.39 | – | –
19 | AGRAAAPELSYRVCVGSDVTSIHK [MYORG] | 3.32 ± 0.17 | 3.35 ± 0.24 | – | –
20 | AGRQSVSGRKNSTSKDLVTLGASS [C6orf223] | 4.4 ± 0.16 | 4.49 ± 0.13 | – | –
21 | AGSKVKDMAGDWHWALRVTPGLGV [SPNS1] | 2.07 ± 0.28 | 2.1 ± 0.26 | – | –
22 | AHEVLQELRDISSMAMEYFDEKIV [FBXO28] | 3.14 ± 0.19 | 3.26 ± 0.45 | – | –
23 | AHFSPFLYYQSQELPNGSVKEAPA [PDZK1] | 3.45 ± 0.13 | 3.33 ± 0.13 | – | –

Row | Sequence | protein stability index [1] | protein stability index [2] | protein stability index (treatment: DMSO, c terminus: native) | protein stability index (treatment: MLN4924 1 uM, 8 h, c terminus: native)
24 | AHRGRLNIQAGINENDFYDGAWCA [CPXM2] | 3.34 ± 0.86 | 3.29 ± 0.46 | – | –
25 | AILRVIRLVRVFRIFKLSRHSKGL [KCNA1] | 2.28 ± 0.36 | 2.46 ± 0.24 | – | –
26 | AIPITELTKSQVQDKPYKCTDCGK [ZNF8] | 4.25 ± 0.2 | 4.3 ± 0.21 | – | –
27 | AIQAFLDKCSAPKIWRTPNGKTIE [IQUB] | 2.36 ± 0.48 | 2.27 ± 0.22 | – | –
28 | AISLTKCLESTKLLADLKKCGDLE [MIA2] | 2.64 ± 0.57 | 2.79 ± 0.69 | – | –
29 | AKLVPSEREASPSNSCQDSTDTES [IKZF1] | 5.41 ± 0.41 | 5.53 ± 0.24 | – | –
30 | AKPRATWTLKLDGNLQLDCLAQGW [RTP4] | 2.17 ± 0.24 | 2.33 ± 0.57 | – | –
31 | AKSRAEAALEEESRQRQSRMEKGE [SMARCE1] | 5.55 ± 0.22 | 5.38 ± 0.22 | – | –
32 | ALAHCHQHGLVLRDLKLCRFVFAD [TRIB3] | 2.44 ± 0.43 | 2.23 ± 0.23 | – | –
33 | ALARLGTVTVISPLELMRTKLQAQ [SLC25A39] | 2.18 ± 0.39 | 2.15 ± 0.72 | – | –
34 | ALATVSLLSLVTFTFLSAKCLQGN [PCDHGC5] | 3.2 ± 0.29 | 3.16 ± 0.23 | – | –
35 | ALCVVDTIKRSSQTGEWQNIAIMT [GFOD1] | 2.31 ± 0.24 | 2.2 ± 0.14 | – | –
36 | ALFKANRLEKAVAAAYTFLQRNPK [P3H4] | 2.48 ± 0.27 | 2.12 ± 0.53 | – | –
37 | ALGWAPAAPPPLKDDPEGDRDGCV [ZBED3] | 5.34 ± 0.17 | 5.54 ± 0.3 | – | –
38 | ALHLAARNGHLATVKLLVEEKADV [RIPK4] | 2.85 ± 0.17 | 3.06 ± 0.3 | – | –
39 | ALMHELSNDGARRQFEFYLEEMIL [BTBD10] | 2.24 ± 0.037 | 2.36 ± 0.69 | – | –
40 | ALNFMKGCLKMNPDDRLTCSQLLE [CDKL4] | 2.32 ± 0.18 | 2.55 ± 0.38 | – | –
41 | ALQAAAHASVDIKDVLDFYKQWKE [SMG5] | 3.19 ± 0.14 | 3.37 ± 0.31 | – | –
42 | ALSSFREESRFCDAHLVLDGEEIP [GAN] | 4.51 ± 0.18 | 4.59 ± 0.14 | – | –
43 | ANHVFFLLYLLHILLLDGAAWLTL [FADS1] | 3.23 ± 0.61 | 3.39 ± 0.6 | – | –
44 | ANYIDGYRKQNAYIATQGSLPETF [PTPRD] | 2.94 ± 0.25 | 3.13 ± 0.45 | – | –
45 | APGVDLSRILNEMRDQYEQMAEKN [KRT16] | 4.27 ± 0.35 | 4.42 ± 0.16 | – | –
46 | APLSSRKHVLYVEHRHLNPDTELK [TCF25] | 3.72 ± 0.35 | 3.87 ± 0.51 | – | –

Row | Sequence | protein stability index [1] | protein stability index [2] | protein stability index (treatment: DMSO, c terminus: native) | protein stability index (treatment: MLN4924 1 uM, 8 h, c terminus: native)
47 | APWWFWLSLTGVSLAGALGVKFVG [POMT2] | 2.48 ± 0.23 | 2.27 ± 0.15 | – | –
48 | AQAGTPAPTKPHDYRQEQPETFWI [SPAG8] | 3.54 ± 0.29 | 3.59 ± 0.29 | – | –
49 | AREGAGLVVASGVIYCLGGYDGLN [KLHL12] | 2.81 ± 0.59 | 2.39 ± 0.51 | – | –
50 | AREGSSEPWLPLTDGRSPRRSRDP [PLEKHN1] | 5.17 ± 0.43 | 5.1 ± 0.098 | – | –
51 | ARNGNAEEVRQLLETMARNEVIAD [OSBPL1A] | 4.11 ± 0.061 | 4.07 ± 0.32 | – | –
52 | ASGSVLRLVDAVLGAEIRNGMAII [HDAC6] | 2.91 ± 0.56 | 2.55 ± 0.58 | – | –
53 | ASLQASIFSGAASLGYGTNVAATG [APBB1IP] | 2.95 ± 0.27 | 2.85 ± 0.33 | – | –
54 | ASLSNQECQLYPRRSQQQQVPVVD [SNURF] | 4.57 ± 0.14 | 4.46 ± 0.24 | – | –
55 | ASTEADKRLSRFDIEMSMRGDIFE [NLN] | 4.02 ± 0.57 | 4.14 ± 0.27 | – | –
56 | ASVDYIRKLQKEQQRSKDLESRQR [TFE3] | 4.06 ± 0.24 | 4.18 ± 0.13 | – | –
57 | ATKSHVDKVIMKLGKTNAKAVSEM [DYNC2LI1] | 3.57 ± 0.21 | 3.51 ± 0.3 | – | –
58 | ATTAATAAATTTTTTSAATATTAP [SNAP91] | 5.36 ± 0.22 | 5.52 ± 0.22 | – | –
59 | AVINWVKHAKKEREESLPNLLQYV [KLHL12] | 2.02 ± 0.32 | 2.49 ± 0.54 | – | –
60 | AVIYLGYCFCGWIVLGPYHVKFRS [MCOLN1] | 3.08 ± 1.1 | 2.86 ± 0.52 | – | –
61 | AVNQKIDRESLCGASTSCLLPVQV [PCDHGC5] | 2.99 ± 0.13 | 3.26 ± 0.65 | – | –
62 | AYTRYLGDLSGGQVLKKIAQKALD [HMOX1] | 2.29 ± 0.19 | 2.23 ± 0.34 | – | –
63 | CAPCPRRSEPVVQCQYPSGAEAG [IRX6] | – | – | 2.67 ± 0.7 | 2.3 ± 0.41
64 | CASPVTGPGSKRDAHFCAVCSDYA [ESR2] | 3.08 ± 0.22 | 3.16 ± 0.29 | – | –
65 | CEYNFVSPSKSFWTRITCAEEGWS [CFHR2] | 2.31 ± 0.35 | 2.05 ± 0.089 | – | –
66 | CGDYFPDGITNGASWYSLSKGMQD [CPN1] | 2.52 ± 0.12 | 2.74 ± 0.14 | – | –
67 | CGKYFQGRGLKSHAYIHSVQFSHH [USP39] | 2.37 ± 0.42 | 2.04 ± 0.56 | – | –
68 | CGPIAGSRQALSFEVPPCNYDPEK | 4.24 ± 0.23 | 4.13 ± 0.46 | – | –
69 | CHDKYTKIFNDFKDRMKSDHKRET [ZMYND11] | 4.08 ± 0.28 | 3.9 ± 0.28 | – | –

Row | Sequence | protein stability index [1] | protein stability index [2] | protein stability index (treatment: DMSO, c terminus: native) | protein stability index (treatment: MLN4924 1 uM, 8 h, c terminus: native)
70 | CHSCQLYLPSTEFSVSSTSRRIYR [IQUB] | 2.45 ± 0.15 | 2.73 ± 0.54 | – | –
71 | CIRLWKYALDMQQSNLEPLSPMTA [FEM1A] | 2.52 ± 0.54 | 2.34 ± 0.35 | – | –
72 | CMHEVHTFVSTCQAIDATVAAELL [HES6] | 2.8 ± 0.85 | 2.34 ± 0.3 | – | –
73 | CMVGLLLIALLTWGYIRYSGQYRE [ATL3] | 2.95 ± 0.25 | 3.04 ± 0.36 | – | –
74 | CSEGFLINEDLKTCSRVDYCLLSD [MATN2] | 2.99 ± 0.44 | 3.28 ± 0.14 | – | –
75 | CWLPLLAGLLPPVPAQKFSALTFL [SMOC2] | 3.54 ± 0.15 | 2.82 ± 0.53 | – | –
76 | CYLSFPDSNSGCLGDTQFCFRFRQ [DENND6A] | 2.25 ± 0.28 | 2.4 ± 0.63 | – | –
77 | CYSSRPLLCWSVWWALSTCGYFQV [SLC19A2] | 2.53 ± 0.19 | 3.55 ± 0.31 | – | –
78 | DAIRGKVGYTRGLHVWQITWAMRQ [SPSB1] | 2.38 ± 0.54 | 2.36 ± 0.42 | – | –
79 | DCMGIDRQHIPDTYLCERCQPRNL [KMT2E] | 3.13 ± 0.33 | 3.4 ± 0.4 | – | –
80 | DDIRKGIVLLEELLPKGSKEEQRD [FIS1] | 4.63 ± 0.43 | 4.6 ± 0.27 | – | –
81 | DDRKLAALLKFHTLDSYEDKQKLK [YJU2B] | 3.97 ± 0.28 | 4.12 ± 0.27 | – | –
82 | DEEEDFFLRGPSGPRFGPRNDKIK [VAMP4] | 4.53 ± 0.26 | 4.62 ± 0.26 | – | –
83 | DEKQCKQCANKVLQHMKAVQADQE [LRRC59] | 4.78 ± 0.19 | 4.63 ± 0.22 | – | –
84 | DFDGKLKDIAGEFKEQLQALIPYV [ATL3] | 2.38 ± 0.47 | 2.94 ± 0.31 | – | –
85 | DFLLRAASFDVCESVDEAGGSGPA [RHOBTB2] | 3.96 ± 0.16 | 4.05 ± 0.29 | – | –
86 | DFRTKYETELSLRQLVEADINGLR [KRT36] | 3.15 ± 0.15 | 3.38 ± 0.17 | – | –
87 | DFSRCDMDGATLCNCALEELRLVF [ELF3] | 2.37 ± 0.15 | 2.11 ± 0.32 | – | –
88 | DGLVGMAIVGGMALGVAGLAGLIG [FIS1] | 2.33 ± 0.6 | 2.09 ± 0.5 | – | –
89 | DGYCMFNHVAVAARYAQQKHRIRR [HDAC6] | 3.05 ± 0.42 | 3.53 ± 0.2 | – | –
